Experimental data: PMC12503259, “Establishment of an in vivo analytical method for detecting total anti-UFH activity and pharmacokinetic study in PS and R15 in rats” (PLOS One, 2025)

Experiments:
[1] = Stability in rat plasma after three freeze-thaw cycles; format: in vitro ADME; conditions: for RE%: plasma sample, freeze-thaw three cycles in -20℃, n=6; for Measured concentration after storage, Mean ± SD / RE (%) versus nominal concentration: rat plasma, three freeze (−80°C)-thaw (25°C) cycles; for Measured concentration after storage, Mean ± SD: n = 6
Description: (§1) Processing of Plasma Samples: 100 μL of the unknown plasma sample was added to 500 μL of 75% methanol (methanol: water = 75:25, v/v) and vortex-mixed for 5 seconds. The mixture was then centrifuged at 12,000 r/min for 10 minutes at 25°C. The supernatant (500 μL) was collected and dried under nitrogen at 60°C. Subsequently, UFH (0.14 U·mL^-1 for PS and 0.15 U·mL^-1 for R15; 120 μL) was added, and the mixture was vigorously shaken at room temperature for 10 minutes. The residual UFH content was measured using the Heparin Anti-FXa assay kit.
(§2) The detailed procedure is as follows: Accurately pipette 40 μL of the sample into a 96-well plate. Place the plate in a microplate shaker. Using a multichannel pipette, add 40 μL of reagent R1 and mix by shaking. Incubate at 37 °C for exactly 3 minutes (start timing upon addition of R1; at 50 seconds, begin shaking with the microplate shaker for 1 minute, then place the plate in the incubator). Remove the 96-well plate from the incubator and place it on the open microplate shaker. Using a multichannel pipette, add 40 μL of reagent R2 to each well and incubate at 37 °C for 6 minutes (after adding R2, at 3 minutes and 50 seconds, open the microplate shaker and shake for 4 minutes, then return the plate to the incubator). Remove the 96-well plate from the incubator and place it on the open microplate shaker. Quickly add 40 μL of reagent R3 using a multichannel pipette and shake until 9 minutes and 10 seconds. At 9 minutes and 30 seconds, add 80 μL of 20% acetic acid to each well to terminate the reaction. Measure the absorbance at 405 nm using a microplate reader (Multiskan FC, Thermo Fisher US).
Two concentration levels (low and high QC) were evaluated for validation of storage stability and freeze/thaw stability. Two concentration levels of PS and R15 (low and high QC) in blank rat plasma were prepared (n = 6), respectively. Samples in rats’ plasma were determined after storage at room temperature (25°C ± 1°C) for 30 min. […] Stock solution of PS and R15 were stored at 4°C for a week. All the samples mentioned above were processed by calibration curves with adequate QC samples diluted from newly prepared stock solution of PS and R15, followed by procedure of sample determination (see “Sample Preparation”), respectively.

[2] = clinical use; cited from earlier work
Description: PS is a cationic protein mixture with a molecular weight of 4000–6000 Da, and is the only heparin antagonist approved for clinical use. PS is primarily extracted from the sperm of wild salmon species, and this cationic protein binds to the anionic heparin, forming a UFH-PS complex that neutralizes the activity of heparin [7–10]. However, PS is associated with several adverse reactions in clinical applications, such as systemic hypotension, pulmonary hypertension, and allergic reactions. Despite extensive exploration of its mechanisms, the underlying causes of PS-related a ...

[3] = Stability in rat plasma at room temperature for 30 min; format: in vitro ADME; conditions: for RE%: plasma sample, room temperature (25℃) for 30 min, n=6; for Measured concentration after storage, Mean ± SD / RE (%) versus nominal concentration: rat plasma, room temperature (25°C ± 1°C) for 30 min; for Measured concentration after storage, Mean ± SD: n = 6
Description: as §1, §2
(§3) Two concentration levels (low and high QC) were evaluated for validation of storage stability and freeze/thaw stability. Two concentration levels of PS and R15 (low and high QC) in blank rat plasma were prepared (n = 6), respectively. Samples in rats’ plasma were determined after storage at room temperature (25°C ± 1°C) for 30 min. Samples in rats’ plasma were under three freeze (−80°C)-thaw (25°C) cycles. Stock solution of PS and R15 were stored at 4°C for a week. All the samples mentioned above were processed by calibration curves with adequate QC samples diluted from newly prepared stock solution of PS and R15, followed by procedure of sample determination (see “Sample Preparation”), respectively.

[4] = test system: complement; conditions: under UFH excess; cited from earlier work
Description: PS and UFH-PS complexes activate complement. Complement fragments can accumulate in the pulmonary microcirculation, up-regulate endothelial adhesion molecules, and recruit neutrophils and monocytes, forming inflammatory microthrombi.

[5] = test system: activated partial thromboplastin time (APTT); conditions: in vitro, supratherapeutic amounts; cited from earlier work
[6] = Stability of stock solution at 4°C for a week; format: physicochemical; conditions: for Measured concentration after storage, Mean ± SD: stock solution (10 mg·mL^-1 in deionized water) stored 1 week at 4°C, n = 6; for Mean determined concentration, stability of stock solution / RE%: stock solution for 1 week; for Mean determined concentration, stability of stock solution: mean of n=6; for RE%: n=6; for RE (%) versus nominal concentration: stock solution stored 1 week at 4°C
Description: Preparation of Stock Solutions: Appropriate amounts of PS and R15 powders were accurately weighed and dissolved in deionized water to obtain stock solutions at 10 mg·mL^-1, respectively. This solution was stored in a refrigerator at 4 °C and replaced regularly.
as §3

[7] = in vivo; cited from earlier work
Description: In clinical practice, PS is typically administered at 1.2 times the anti-heparin activity of circulating UFH to achieve complete neutralization [40, 41].

[8] = Specific activity, units of UFH neutralized per mg; format: biochemical; conditions: units of UFH exactly neutralized per milligram
Description: Since the toxicity of both PS and R15 correlates with their heparin antagonism capacity (i.e., potency), the units used for PS and R15 in most experiments are U·mL^-1 or U·kg^-1. Employing activity units (U) allows for a more scientifically rigorous comparison of the pharmacokinetic parameters of PS and R15 under equivalent activity levels (i.e., equivalent heparin antagonism capacity).
The specific activity of PS is 150 U·mg^-1, meaning that each milligram of PS can exactly neutralize 150 units of UFH. The specific activity of R15 is 170 U·mg^-1, meaning that each milligram of R15 can exactly neutralize 170 units of UFH. Therefore, expressing the concentration of PS as 1 U·mL^-1 denotes that each milliliter of the medium contains sufficient PS to neutralize 1 unit of UFH, and the same applies to R15.

[9] = nominal 0.7 μg·mL^-1, anti-FXa read-out at 405 nm
[10] = nominal 1.5 μg·mL^-1, anti-FXa read-out at 405 nm

Substance: Protamine sulfate [PS]
- RE% ([1]; nominal 0.70 μg/mL): 10.71%
- RE% ([1]; nominal 1.50 μg/mL): 5.78%
- Measured concentration after storage, Mean ± SD [1, 9]: 0.78 ± 0.02 µg/mL
- RE (%) versus nominal concentration ([1]; nominal 0.7 μg·mL^-1, n = 6): 10.71%
- Measured concentration after storage, Mean ± SD [1, 10]: 1.59 ± 0.04 µg/mL
- RE (%) versus nominal concentration ([1]; nominal 1.5 μg·mL^-1, n = 6): 5.78%
- rate of mild adverse reactions [2]: ≤ 16%
- RE% ([3]; nominal 0.70 μg/mL): 8.10%
- RE% ([3]; nominal 1.50 μg/mL): 4.44%
- Measured concentration after storage, Mean ± SD [3, 9]: 0.76 ± 0.01 µg/mL
- RE (%) versus nominal concentration ([3]; nominal 0.7 μg·mL^-1, n = 6): 8.10%
- Measured concentration after storage, Mean ± SD [3, 10]: 1.57 ± 0.09 µg/mL
- RE (%) versus nominal concentration ([3]; nominal 1.5 μg·mL^-1, n = 6): 4.44%
- complement activation by UFH-PS complex relative to UFH–R15 complex [4]: 8.28 fold
- effect of excess on APTT [5]: persistently prolonged APTT
- Measured concentration after storage, Mean ± SD ([6]; then diluted to nominal 0.7 μg·mL^-1, anti-FXa read-out): 0.59 ± 0.02 µg/mL
- Measured concentration after storage, Mean ± SD ([6]; then diluted to nominal 1.5 μg·mL^-1, anti-FXa read-out): 1.44 ± 0.04 µg/mL
- Mean determined concentration, stability of stock solution ([6]; nominal 0.7 μg/mL): 0.59 µg/mL
- RE% ([6]; nominal 0.7 μg/mL): -15.2%
- Mean determined concentration, stability of stock solution ([6]; nominal 1.5 μg/mL): 1.44 µg/mL
- RE% ([6]; nominal 1.5 μg/mL): -4.1%
- RE (%) versus nominal concentration ([6]; nominal 0.7 μg·mL^-1, n = 6): −15.2%
- RE (%) versus nominal concentration ([6]; nominal 1.5 μg·mL^-1, n = 6): −4.1%
- T1/2 [7]: 7.4 min
- specific activity [8]: 150 U·mg^-1
